According to patent publication US20140328762A1 (published 2014):

Assays:
[1] = biological target: JunLZ-Lb1b4 beacon (UniProt P0AEX9 27-392 = MBP); assay: fluorescence emission screening (FIG. 11)
Procedure: (§1) The graphs show a comparison of binding-induced fluorescence enhancement of JunLZ beacons. Concentration for all beacons is 1.0 and concentration of FosLZ or scrFosLZ is 10.0 μM. The assay was carried out in 0.1 M PBS, pH7.2 at room temperature. […] Numbers above the curves represent signal to noise ratios calculated from the maxim emission values that centered around 585 nm.
(§2) The purified fusion proteins were used directly without removing the MBP fusion partner. To prepare the beacons, TAMRA fluorophores were attached to the fusion proteins via the maleimide chemistry.

[2] = biological target: JunLZ-Lb3b5 beacon (UniProt P0AEX9 27-392 = MBP); assay: fluorescence emission screening (FIG. 11)
Procedure: as §1, §2

[3] = biological target: JunLZ-Lb2b5 beacon (UniProt P0AEX9 27-392 = MBP); assay: fluorescence emission screening (FIG. 11)
Procedure: as §1, §2

[4] = biological target: JunLZ-Lb1b3 beacon (UniProt P0AEX9 27-392 = MBP); assay: fluorescence emission screening (FIG. 11)
Procedure: as §1, §2

[5] = biological target: JunLZ-Sb1b4 beacon (UniProt P0AEX9 27-392 = MBP); assay: fluorescence screening assay (FIG. 11)
Procedure: as §1, §2

[6] = biological target: JunLZ-Sb1b3 beacon (UniProt P0AEX9 27-392 = MBP); assay: fluorescence screening assay (FIG. 11)
Procedure: as §1, §2

[7] = biological target: JunLZ-Sb3b5 beacon (UniProt P0AEX9 27-392 = MBP); assay: fluorescence screening assay (FIG. 11)
Procedure: as §1, §2

Measured: binding result

B1: scrFosLZ (MBP-scrFosLZ, fusion protein of MBP and the scrambled cFos leucine zipper) (other, not shown: large carriers)
chain: GGSGGTDTAQAETDQAEDEKSAAQTEIANALKEKEKAEFILA
notes: Negative control; also called scrambled FosLZ
no binding (tested: 10.0 µM): all assays above
